# In patent US20230220078A1 (NAVI BIO THERAPEUTICS, published 2023):
# T1: PVRL4_864 (94-957, 864 bps, r864p) recombinant fragment of Nectin-4 (PVRL4_HUMAN) (human, UniProt Q96NY8 32-319)
# T1 construct: His-tagged and purified on Ni-sepharose from a 6M urea lysate; also called his-PVRL4_864
# T1 sequence (looked up): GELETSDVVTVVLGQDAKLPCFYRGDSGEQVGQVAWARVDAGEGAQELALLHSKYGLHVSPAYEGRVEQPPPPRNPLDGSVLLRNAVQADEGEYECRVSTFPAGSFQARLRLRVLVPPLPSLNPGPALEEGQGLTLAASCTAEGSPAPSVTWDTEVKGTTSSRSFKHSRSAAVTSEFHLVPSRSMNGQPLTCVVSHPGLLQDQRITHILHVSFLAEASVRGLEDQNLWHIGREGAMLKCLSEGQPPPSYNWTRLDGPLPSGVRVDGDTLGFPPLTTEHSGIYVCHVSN
# Key:
# [1] = molecular target: T1, PVRL4_864 (94-957, 864 bps, r864p) …; test: ELISA titration of purified scFv on PVRL4 864
# [2] = molecular target: T1, PVRL4_864 (94-957, 864 bps, r864p) …; test: competitive ELISA of purified scFv on r864p
# [3] = molecular target: T1, PVRL4_864 (94-957, 864 bps, r864p) …; test: competitive ELISA of purified scFv on r864p; competitive ELISA, purified scFv S21 on r864p
Binder,concentration of scFv at OD450 nm value of 1 [1],50% concentration [2],Kd [2],Kd [3]
"NECTIN4-scFv-L1 (scFv, V domains shown, Chicken-derived scFv, tested as purified scFv) VH: AVTLDESGGGLQAPGGGLSLVCRASGFTFSSHGMFWVRQAPGKGLEFVAGISDAGSWTGYGAAVKGRATISRDSGQSTVRLQLNNLRAEDTGIYYCAKSAGDWYGADDIDAWGHGTEVIVSS VL: ALTQPSSVSANPGETVKITCSGGSSNYYGWYQQKSPGSAPVTLIYNNNKRPSDIPSRFSASKSGSTHTLTITGVRAEDEAVYFCGGWDKSAGIFGAGTTLTVL",0.04 µg/mL,34.7 µg/mL,0.939 µM,–
"NECTIN4-scFv-S21 (scFv, V domains shown, Chicken-derived scFv from a pComb3X phage library, tested as purified scFv; also called anti-PVRL4 scFv S21; NECTIN4-scFv-521) VH: AVTLDESGGGLQTPGGALSLVCKASGFTFSSYAMMWVRQAPGKGLEYIAGIRSDGRYTYYGAAVKGRATISRDNGQSTVRLQLNNLRAEDTGTYYCAKSGVTDTSSSTYSSASNIDAWGHGTEVIVSS VL: ALTQPSSVSANLGGTVKITCSGGSGSYGWYQQKSPGSAPVTLIYANTNRPSDIPSRFSGSKSGSTSTLTITGVQAEDVAVYYCGSRDSSYVGIFGAGTTLTVL",0.02 µg/mL,52.5 µg/mL,–,1.41 µM
"NECTIN4-scFv-S6 (scFv, V domains shown, Chicken-derived scFv, tested as purified scFv) VH: TVTLDESGGGLQTPGGGLSLVCKGSGFTFSSNGMAWVRQAPGKGLEFVAGVNAAGSWTGYGAAVKGRATISRDNGQSTVRLQLNDLRAEDTGTYYCAKTADDWYGADDIDAWGHGTEVIVSS VL: ALTQPSSVSTNLGETVEITCSGSSGYGYGWYQQKSPGSAPVTVIYSNDKRPSDIPSRFSGSASGSTATLTITGVRAEDEAVYLCGGYDSSASYVGIFGAGTTLTVL",0.31 µg/mL,34.9 µg/mL,0.942 µM,–
